Source: patent US20230192767A1 (MEDIKINE, published 2023)

T1: human IL-2Rβ (CD122 protein, Fc Tag) (27-239) (human, UniProt P14784 27-239)
T1 construct: range 27-239; Bought protein; also called IL-2Rβ subunit; IL-2Rβ-Fc; not shown: Fc Tag of the bought protein (ACRObiosystems ILB-H5253)
T1 sequence (looked up): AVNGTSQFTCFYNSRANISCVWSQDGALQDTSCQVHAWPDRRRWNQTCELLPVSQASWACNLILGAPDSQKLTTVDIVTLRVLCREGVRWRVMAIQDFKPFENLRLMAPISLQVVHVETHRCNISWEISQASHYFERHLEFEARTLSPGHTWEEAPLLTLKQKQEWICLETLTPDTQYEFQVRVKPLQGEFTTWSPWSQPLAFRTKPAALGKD


target: T1, human IL-2Rβ (CD122 protein, Fc Tag) …; experiment: pH-dependent ELISA (Examples 9-12)
Protocol: For each peptide to be assayed, 16 ELISA plate wells were coated with neutravidin ([…] in PBS pH7.2) at 50 μL/well. The coated wells were incubated at 25° C. for at least 1 h.
The neutravidin was removed from each well. Three-hundred (300) μL of blocking buffer (1×PBS pH 7.2, 1% BSA) was added to each well of the neutravidin-coated plates. All plates were covered and maintained at 25° C. for 1 h or overnight at 4° C.
The biotinylated peptides were diluted to 1 μM in PBT pH 7.2 buffer and 50 uL was added to the appropriate 16 wells (8 for each binding pH). The plates were incubated at 25° C. for at least 1 h.

| Binder | decrease in binding at pH 7.5 compared to pH 6.0 |
| --- | --- |
| YACRFAHVGDLCDL [SEQ ID NO 534] | > 15% |
| SWVNNCRMAQVGELCDLPNW [SEQ ID NO 460] | > 15% |
| KACSIAQVGDLCEIYGFDDA [SEQ ID NO 421] | > 15% |
| WGRQECRFANVGDLCDVSNY [SEQ ID NO 491] | > 15% |
| YDCQKAQLGELCDLRYSVRD [SEQ ID NO 536] | > 15% |
| QDCRLAHLGDLCDLWSPRQN [SEQ ID NO 477] | > 15% |
| QDCRKANVGELCYLDWDSPT [SEQ ID NO 476] | > 15% |
| GLNPMIPGCQMAQVGELCEL [SEQ ID NO 463] | > 15% |
| QPCRNAHLGQLCDLQTWTNS [SEQ ID NO 505] | > 15% |
| LRCRMAQVGDLCDLDRAWDW [SEQ ID NO 454] | > 15% |
| QDCRMAHLGELCTL [SEQ ID NO 480] | > 50% |
| HECRFAQVGELCDL [SEQ ID NO 418] | > 15% |
| EDCWMAQVGQLCDL [SEQ ID NO 403] | > 15% |
| YPCRMADVGELCDL [SEQ ID NO 569] | > 15% |
| AVKRFRQDCRTAPVGTLCDL [SEQ ID NO 485] | > 15% |
| HDCWFAKLGELCDLRQMSFV [SEQ ID NO 416] | > 15% |
| LEFMWIQDCGMAEVGELCEL [SEQ ID NO 468] | > 15% |
| HQCRFAHVGELCDLFVFESY [SEQ ID NO 419] | > 15% |
| QNCSTAKVGELCDLLMEGTE [SEQ ID NO 503] | > 15% |
| LLSYPCRMAQVGELCDIAMK [SEQ ID NO 570] | > 15% |
| LDCRIAPLGELCDMFISAFN [SEQ ID NO 436] | > 15% |
| KDCRLAYVGELCDLNRSDTI [SEQ ID NO 423] | > 15% |
| YDCRMAKVGDLCDLWSVWGR [SEQ ID NO 548] | > 15% |
| EYFSHDQDCQTAQLGELCKM [SEQ ID NO 471] | > 15% |
| VLCRIAQVGQLCEL [SEQ ID NO 526] | > 15% |
| DEMQDCQIAQVGELCDLGLE [SEQ ID NO 470] | > 15% |

| Binder | decrease in binding at pH 7.5 compared to pH 6.0 |
| --- | --- |
| VDCWIAQLGELCELEDGRRQ [SEQ ID NO 524] | > 15% |
| FIAQKCRLAKVGELCDLGYS [SEQ ID NO 500] | > 15% |
| SDCSVANVGDLCNL [SEQ ID NO 515] | > 15% |
| QDGAKLKECRVAQVGELCEF [SEQ ID NO 427] | > 15% |
| LECRLARLGDLCYL [SEQ ID NO 443] | > 15% |
| VLEVLRQECRMAQVGELCDL [SEQ ID NO 494] | > 15% |
| SVWQECSMAQVGDLCELHIG [SEQ ID NO 495] | > 15% |
| QVLKNCRLAHIGELCYLSER [SEQ ID NO 428] | > 15% |
| TYAKLVNYCWTAQLGELCYL [SEQ ID NO 461] | > 15% |
| QDCRMAQVGHLCDL [SEQ ID NO 481] | > 15% |
| EQTRSGYACRTAQVGELCDL [SEQ ID NO 535] | > 15% |
| GYEPIMRACRNAQVGDLCDL [SEQ ID NO 506] | > 15% |
| WPMSQFQKCATAQVGELCEL [SEQ ID NO 499] | > 15% |
| TWAYDCRTAEVGELCDLPVQ [SEQ ID NO 551] | > 15% |
| WQCRWAQVGELCDLSSENDN [SEQ ID NO 531] | > 15% |
| YLCQVAGVGELCDLEESGRN [SEQ ID NO 566] | > 15% |
| LSCSIAQVGELCDL [SEQ ID NO 456] | > 15% |
| NLRQNCRDAPVGELCDLEWI [SEQ ID NO 501] | > 15% |
| KSCARAQVGELCYIEGAEDA [SEQ ID NO 430] | > 15% |
| LLCRMAHLGELCDL [SEQ ID NO 448] | > 15% |
| VTGWTYRDCRIANVGDLCEL [SEQ ID NO 507] | > 15% |
| GVKDGWEDCGIAQVGELCVL [SEQ ID NO 402] | > 15% |
| KDCRTALIGDLCDLTLHLGG [SEQ ID NO 425] | > 15% |
| GRFYPCNMAQVGELCELMEY [SEQ ID NO 568] | > 15% |
| RTMKQCSIAQVGELCDLAVT [SEQ ID NO 429] | > 15% |
| FECWIAQVGELCDL [SEQ ID NO 411] | > 15% |

target: T1, human IL-2Rβ (CD122 protein, Fc Tag) …; experiment: IC50, method not told in the paragraph

| Binder | IC50 |
| --- | --- |
| NMCLVGDYWPSCQI [IL-2Rβ ligand SEQ ID NO: 169] | < 10 µM |
| CCYQAMVGDLCDFC [IL-2Rβ ligand SEQ ID NO: 83] | < 10 µM |
| YDCRIAQVGELCDL (also called Peptide E) [IL-2Rβ ligand SEQ ID NO: 58] | < 10 µM |
| QICDVGQWWPDCQV [IL-2Rβ ligand SEQ ID NO: 170] | < 10 µM |
| RWGDVGDLLMPL [IL-2Rβ ligand SEQ ID NO: 1043] | < 10 µM |
| CGMAIGDLCMWT [IL-2Rβ ligand SEQ ID NO: 1084] | < 10 µM |
